The values that follow come from patent publication US6660715B2, “Nonaqueous solutions and suspensions of macromolecules for pulmonary delivery” (Massachusetts Institute of Technology, priority 1998, dated 2003).

The test system of the data set is M. lysodeikticus. The data set can be described thus: Lysozyme activity after aerosolization from ethanol (standard assay against dried cells of M. lysodeikticus). The class given is biochemical. The protocol: […] The reservoir containing the ethanol solution was connected via a plastic tube to a collecting test tube placed in an ice booth to facilitate condensation of the solution. The nebulization was started and continued for 5 minutes. As a result, about one mL of the ethanol solution was collected in the test tube (i.e. was aerosolized). No solution was collected with the nebulizer switched off. The lysozyme activity of the nebulized solution was measured using the standard assay against dried calls of M. lysodeikticus. (Shugar, Biochim. Biophys. Acta 8, 302 (1952)).

As for “lysozyme: hen egg-white lysozyme (a model protein)”, under “0.1 mg/ml solution in ethanol, compressor nebulizer, 5 minutes”, the “specific activity of the nebulized solution relative to the initial enzyme solution” value is reported as “the same, (±10%) as that of the initial enzyme solution”. For the same substance, the “loss of enzymatic activity upon aerosolization” value runs as follows: (dispersion in ethanol at 1 mg/ml) “no appreciable loss of enzymatic activity”; (dispersion in ethanol at 10 mg/ml) “no appreciable loss of enzymatic activity”.
